Biological target: the molecule itself
Assay: cryo-EM structure

B1: B subunit of Stx2a ([change]), pentameric (natural protein)
chain: ADCAKGKIEFSKYNEDDTFTVKVDGKEYWTSRWNLQPLLQSAQLTGMTVTIKSSTCESGSGFAEVQFNND
  stoichiometry N: 5
